Measured values as given in article PMC6166933 (2018).

What was measured:
Recombinant human RO60 [1] = target: T1, Recombinant human RO60 (human, UniProt P10155 1-538); experiment: BLI; rRO60 1833 nM
Recombinant human RO60 [2] = target: T1, Recombinant human RO60; experiment: BLI; rRO60 917 nM

T1 sequence (P10155 whole entry): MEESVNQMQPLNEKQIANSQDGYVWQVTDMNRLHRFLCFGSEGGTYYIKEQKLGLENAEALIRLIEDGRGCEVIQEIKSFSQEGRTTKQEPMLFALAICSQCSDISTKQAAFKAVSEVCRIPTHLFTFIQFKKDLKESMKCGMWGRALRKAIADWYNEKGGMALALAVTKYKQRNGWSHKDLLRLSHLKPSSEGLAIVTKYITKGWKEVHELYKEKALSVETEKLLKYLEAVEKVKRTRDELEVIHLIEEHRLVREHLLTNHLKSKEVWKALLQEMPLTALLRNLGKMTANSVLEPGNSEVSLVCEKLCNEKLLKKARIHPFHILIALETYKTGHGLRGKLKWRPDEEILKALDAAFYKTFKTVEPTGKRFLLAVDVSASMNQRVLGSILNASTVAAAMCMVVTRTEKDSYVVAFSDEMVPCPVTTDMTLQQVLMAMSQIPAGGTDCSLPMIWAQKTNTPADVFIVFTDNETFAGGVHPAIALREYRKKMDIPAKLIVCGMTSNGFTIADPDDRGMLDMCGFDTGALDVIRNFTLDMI

koff (Recombinant human RO60 [1]): 0.0062 s⁻¹ | koff (Recombinant human RO60 [2]): 0.0046 s⁻¹
B1: Recombinant GST-tagged human DDX6 (natural protein)
chain: MSTARTENPVIMGLSSQNGQLRGPVKPTGGPGGGGTQTQQQMNQLKNTNTINNGTQQQAQSMTTTIKPGDDWKKTLKLPPKDLRIKTSDVTSTKGNEFEDYCLKRELLMGIFEMGWEKPSPIQEESIPIALSGRDILARAKNGTGKSGAYLIPLLERLDLKKDNIQAMVIVPTRELALQVSQICIQVSKHMGGAKVMATTGGTNLRDDIMRLDDTVHVVIATPGRILDLIKKGVAKVDHVQMIVLDEADKLLSQDFVQIMEDIILTLPKNRQILLYSATFPLSVQKFMNSHLQKPYEINLMEELTLKGVTQYYAYVTERQKVHCLNTLFSRLQINQSIIFCNSSQRVELLAKKISQLGYSCFYIHAKMRQEHRNRVFHDFRNGLCRNLVCTDLFTRGIDIQAVNVVINFDFPKLAETYLHRIGRSGRFGHLGLAINLITYDDRFNLKSIEEQLGTEIKPIPSNIDKSLYVAEYHSEPVEDEKP
